For 1 substance, GFP lifetime results are on record in publication doi:10.1101/848226.

This test addresses mCherry-CARACB(G15V) (barley (Hordeum vulgare)). The test can be described thus: FRET or BRET. (In BRET a luciferase serves as donor, and the signal depends on an acceptor being close.)

With GFP-RIC157 (natural protein), the GFP lifetime worked out at 2.2 ns.
